Measured values as given in PMC8748511 (2022).

Biological target: SARS-CoV-2 spike receptor binding domain (RBD) (SARS-CoV-2, UniProt P0DTC2)
Assay: SPR

B1: Fu2 (VHH)
VHH: QVQLVESGGGLVQPGGSLRLSCAASGFTLDDYAIGWFRQAPGKEREGVSFITSSDGSTYYVDSVKGRFTISRDNAKNTVYLQMNSLTPEDTAIYYCAVGPSFSYTGSTYYRSELPWDYDYWGQGTQVTVSS
- Kd: 0.118 nM
